Where a SMILES comes first, the peptide text is derived from it. Bridges are numbered along the chain shown (N, C = ends). The star is where a group is joined. X1 = CC1=CC(C)(C)N(CCCS(=O)(=O)O)c2cc3c(cc21)/C(=C/C=C/C1=[N+](CCCS(=O)(=O)O)c2ccc(S(=O)(=O)[O-])cc2C1(C)CCCC(=O)*)C=C(C(C)(C)C)O3
Assay: Limited acute dose toxicity study in male rats
Format: in vivo, rat
Protocol: A limited acute dose toxicity study was conducted to investigate the tolerance of Compound 6 at 100 times the preclinical imaging dose (50 nmol/kg body weight). The compound was injected intravenously in male rats, and the animals were sacrificed at 1, 14, 21 and 28 days post injection (p.i.). At necropsy, the major organs were inspected for gross pathology, and the kidneys were taken into neutral buffered formalin for subsequent histomorphological evaluation. A weak blue colouration of the skin and a moderate blue colouration of the urine were observed immediately after injection, which disappeared within 1 day p.i. […] The other minor changes seen were incidental and common in young adult laboratory rats. Strong fluorescence staining of blood vessels in the kidney was observed on day 1 p.i.

SMILES: CC(=O)N[C@@H](C)C(=O)NCC(=O)N[C@@H](CO)C(=O)N[C@H]1CSSC[C@@H](C(=O)N[C@@H](Cc2ccc(O)cc2)C(=O)N[C@@H](CCC(=O)O)C(=O)N[C@H](C(=O)N[C@@H](CCC(=O)O)C(=O)NCC(=O)N[C@H](C(=O)NCC(=O)NCC(=O)NCC(=O)N[C@@H](CCCCNC(=O)CCCC2(C)C(/C=C/C=C3\C=C(C(C)(C)C)Oc4cc5c(cc43)C(C)=CC(C)(C)N5CCCS(=O)(=O)O)=[N+](CCCS(=O)(=O)O)c3ccc(S(=O)(=O)[O-])cc32)C(N)=O)[C@@H](C)O)[C@@H](C)O)NC(=O)[C@H](Cc2c[nH]c3ccccc23)NC(=O)[C@@H]2CSSC[C@H](NC(=O)[C@H](Cc3ccc(O)cc3)NC1=O)C(=O)N[C@@H](CO)C(=O)NCC(=O)N1CCC[C@H]1C(=O)N1CCC[C@H]1C(=O)N[C@@H](CCCNC(=N)N)C(=O)N[C@@H](Cc1ccccc1)C(=O)N[C@@H](CCC(=O)O)C(=O)N2 (stereo partly drawn) [Compound 6] (Ac-AGSCYCSGPPRFECWCYETEGTGGGK(X1)-NH2; disulfide 4-16, 6-14)
- Tolerance of single intravenous administration (100 times the anticipated clinical dose): well tolerated and without any drug substance related adverse effects
- Gross appearance of the kidneys at necropsy (day 1 p.i.): diffusely green
- Time until blue colouration of skin and urine disappeared (i.v., weak blue colouration of skin, moderate of urine, immediately after injection): ≤ 1 day p.i.

From patent US8431111B2, “Peptide imaging agents” (GE Healthcare Limited, priority 2007, dated 2013)
